Reference: a protein production outcome set (Wang et al. 2014)

Test: label from the status in PepcDB records
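Further: failed if final PepcDB status was selected cloned or expressed and not failed if soluble or beyond.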

Question: Which protein production does the source give for “MVMFRGHLLCFGLGYSALRLARGLLRDGWRVSGTCRSEEKRQALSAQGITAFVFDETTPLPAEAWTGVTHVLVSIPPGPDGDPVLALHRADLLALRPEWLGYFSTTGVYGDTGGAWVDEGKPVRPTQERSKRRVAAEEDWLDLWRDEDLPVHLLRLAGIYGPGRSVFDQLRAGTAKRIIRPGHAFSRIHVDDIGLITRASMADPDPGAIYNLVDDEPAEPSEVMDHACALLGIDPPPAQSFDEVAPGLSPMALSFWADNRKVSNERLWDDLRLRLLYPTFRQGLEAILAEETGRVAEGPPVYKEASDC” here?
Answer: failed

Question: Which protein production does the source give for “MKLPLHKILKNGATVELDYIKPQEYEDVRRLLNVVIDEGQTYPQKQPLSQQEFAAYWLSQDAFVIRLSGEDGTQKPQTILGSFYIKPNFPGRCSHICNAGFIVQPGLRGQGIGKFMGESMLLVAAQLGYEAVMFNLVFETNIPSITLWQSLGFDIIGSVPDAAKLADGKVVKALIMYRALGV” here?
Answer: not failed

Question: For “MSAEKSSADTAKKTLTIYSTMSTDSERDTFRKLAAAFEKEHSDIHVSLHFPGNDYENMMRVRMAANDLPDLFDTHGWGKIRYGEYTADLRDMKWTQDLDPNLNSILKNKSGKVYAYPINQAKDGLAYNRNILDRYGIAPPETMDDFIKALRTIKEKSKGSIVPFWFAGYDKSSFAQYYDQFATPLLITDPAHNEKKQLINGTFQWSKFTYLSEILKQMQKEKLINIDAVTAKKSQLIELMAQNKIAFTMQGGTLGQDVAQINPNVKVGIIPTPAIHPGDDPIWIGGERYTLAAWKDSPQLKEAKDFIAFMARPANAKQMAEATSLPSGLTNVKADIFYANDYEYYQDVKVEPYFDRLYLPNGMWDVLGTVGQELAADILAPQDISQKLGREYKRLREQSETQGAENNELEHHHHHH”, which protein production is on record?
Answer: not failed

Question: For “MRGLSLSPVVLPEVRREAGVELRKARLEDVDAIYWLIRYWAEKGLMLVRSHSHLYENIRDFWVLEDEDGQIVGTVALHVLWRDLAEIRGLAVHPTRQGQGLGRWLVLGAEREARDLGLPRVFAWTLQVNFFRALGYRVTSREALPPKVWSECNACPFYENCREIAVVKEFSPGASGG”, which protein production is on record?
Answer: failed

Question: With “MPAGSDWRTQPPSDYAQWNPAPRMPNQPKPLTTAHHQFAAIVQNSFDAIVSKDVEGNVQSWNPAAEQIFGWTADEMIGNSIRVLIPPDRQHEEDDILQRIRTGEMVPKFETERLHKSGRRIHVAVTVSPLRDPDGRIVGASKIAHDITETVEIRRRLVASEHQFRSLANSIPQLAWIAESDGTVFWYNDRWFDYTGTTLEQLRGSGWTALHHPDHLERVRSKLQHSWDTGEAWEDTFPLRGKDGEYRWFLSRAMPLRDDSGEVWRWFGTNTDITVQRQHEQQIQMLMGEINHRAKNMLAVVQAMVMRTADRSFAESLGARLQALSRNQDLLIKRNWSGTPIGELIESQLAAVNDLIGTRVLIEGERELLLSPVASETIGLAIHELTTNATKYGALSNADGTVRIACEIRHTVDGPKLDLIWHEQGGPPVGEPNRAGFGTVMIDRNPRSALGADVEISYPESGLRWCLNAPLDRLVATP” as the sequence, how does the protein production read?
Answer: not failed

Question: With “MQQTVTYGAKWKQFLTIFTPIVITQLTLFSMTFFDTTMSGNYSNQALAGVAIGSSFWAPVNAAFSGLLMAITPIIAQLIGAKKEKQVKNTVHNGLYIALFLAFILILINFLVVPTILTHMPVTAEVAHIARHFLNGICIGIPAFFISAILRSFIDSLGLTRVTMLITLCTVPFNIFLNYCFIFGNFGFPEMGGAGSGYATGITYWLVVLVSVILIQTQTRLRKFGIFKGLTALRFSKVKEIIGIGVPNGLTILFETSIFSAVTILMGAFGTETIAAHQSANSVCTLLYAFPLSVASTLTILGGYETGAKRLKDAKQYRHIGMTAAILIGCINGAILFFFRDIIAGFYTNDAELSDLIMHFLVYAILFQFADAVLSPVLGALRGYKDVAITSIIAFISYWLIGLPVGYGLSFTNLGPFGYWIGLSTGLFVAAFILSIRVRKTERKLSLNAKNAEISS” as the sequence, how does the protein production read?
Answer: not failed

Question: With “MILATYFDGRTSRAQPVRLAVEQGEAVLFDPEGVPVRRAPLSALRVSERVKHAPRLVTFEDGAFCEIADPAEQQALNALLHRTGYREGAVVRAQNSWRLALGALALTLAALVLGYRYGLPWGAKVLAGMVPQRVEAQLGHASLAAFDQHWLEPSKLPQAQQARIRARFAALRAPDATHAYTIAFRDAGKLGANAFALPGGDIIVTDALVRLVGEGDGLMGVLAHEAGHVEYRHGLRQLIQSSAIGATAALLFGDISTILAGVPATMLTLRYSRDYERDADRYASRMLQSNGLSVAAFADVLQALEDSHGGARGTGSGAGRKEEDRDDASGFFSSHPLTRERIETLRRFDHTHGGSDAD” as the sequence, how does the protein production read?
Answer: failed

Question: For “MSLSSEVVLMKPYEKLVERFNEMAAEFLSYFPTVKSVGNLESELDKRRFVILFRAMLRLRNEVKGYNEFDAEDLTIEEQRFADYQSKYLDMSNEFAITSEKEDAESILQDIDFELELVHRDIINVMYILALLQDLKPESSSYPKDRKAVLDTMDSNPELRSKIALIDNFIKLHIDGRQSNDLPADMESDLDKYIATQKAIAIEQVATEEGIDSTLLHEYISEYEYLGKPKNEGHHHHHH”, which protein production is on record?
Answer: not failed

Question: For “DDFEDSLEYLEPLDHDAYIVRLNFTGENTTEPIISYMTKTHNIDVNILEADIKNTKNGSLGFLVIHIPHISEEHFKQFKHNLHEQHVNVEVLKHG”, which protein production is on record?
Answer: not failed

Question: Which protein production does the source give for “MAAGFFQAEMSILSSTLARSYSLPIRKTLMTFDFRIAMQRNPCLRIRRSCVAAFSSTPSHSRNFPIRGLEDVFVGYLFGRKKATEVAHVVWEQVIQKGDTVIDATCGNGNDTLAMLKMVMHDSVGCGGYVYAMDIQKDAIESTSSLLDQAVGSKEKECVKLFNLCHSKMGEIVPENARVRMVAFNLGYLPGGNKSIITLSDTTLSALKAAERILKPGGLISLVVYIGHPGGREELEVVEAFGSGLPVSDWICCKFQMLNRPLAPVLVFMFKREN” here?
Answer: failed

Question: With “MAGRRMKRLRAFFYVQHLLGIGHLARASRIAAALADDGFDITVVTGGPPIAGFPGQGVKSVTLPPVTSGDNGFSGLVDLQGKPIDDDFKKRRSEMLLQAFRDCRPDIVIVEAFPFGRRQMRFELLPLLETIEATSPRPLLATSVRDILQERVKPGRNEETVDLINRHFDLVMVHGDPAFTTIDKTFPLAGAITAEVTYTGLVGAPPSPAAAERFDILVSVGGGAAGRRLVSSTLAAARIANGWKWCLITGPNLPKDEFDVIACDATPGLSIFRFREDFASLLTGARLSVSQAGYNTVCDVLRAGCRSLLVPFAAGGETEQTVRALMLEELGLATVLTENDLTPDGLAQAIEQALAGPTPSAHRLDLEGARHSAQILRERYRTWSLKMGSGFGKEHDQTDDGS” as the sequence, how does the protein production read?
Answer: failed

Question: Which protein production does the source give for “MSLKYKLIVLDLDGTLTNSKKEISSRNRETLIRIQEQGIRLVLASGRPTYGIVPLANELRMNEFGGFILSYNGGEIINWESKEMMYENVLPNEVVPVLYECARTNHLSILTYDGAEIVTENSLDPYVQKEAFLNKMAIRETNDFLTDITLPVAKCLIVGDAGKLIPVESELCIRLQGKINVFRSEPYFLELVPQGIDKALSLSVLLENIGMTREEVIAIGDGYNDLSMIKFAGMGVAMGNAQEPVKKAADYITLTNDEDGVAEAIERIFNVEGHHHHHH” here?
Answer: not failed

Question: With “MDYGMYFFEHVTPYETLVRRMERVIASGKTPFQDYFLFESKGFGKVLILDKDVQSTERDEYIYHETLVHPAMLTHPEPKRVLIVGGGEGATLREVLKHPTVEKAVMVDIDGELVEVAKRHMPEWHQGAFDDPRAVLVIDDARAYLERTEERYDVVIIDLTDPVGEDNPARLLYTVEFYRLVKAHLNPGGVMGMQAGMILLTHHRVHPVVHRTVREAFRYVRSYKNHIPGFFLNFGFLLASDAFDPAAFSEGVIEARIRERNLALRHLTAPYLEAMFVLPKDLLEALEKETMVSTDQNPFYVTPEGEARQAPYKG” as the sequence, how does the protein production read?
Answer: not failed

Question: For “MNQPASAYFMDERKDPVETHTLSVLVQNEPGVLARVIGLFSGRGYNIESLTVSETEAQKHVSRITIVTTGTLAVIQQIKHQLDRMVPVYRVVDMTLSGRSIERELAMVKLRGVGEHRVEALRLAEAFRARVIDATIESFVFEITGNSAKINQFIDLMRPLGLVEVSRTGVAAIGRGPEGM”, which protein production is on record?
Answer: failed

Question: Which protein production does the source give for “WTCNKFRCGEKRLTRSLCACSDDCKDQGDCCINYSSVCQGEKS” here?
Answer: not failed

Question: With “MADSKGTASPAKPLQPPSAATPIIERVIKQMESEDGWVSLGEVGKHLSNLASDFDPRTFGFRKLSDLVRKTNAFELEQQNGHLEHHHHHH” as the sequence, how does the protein production read?
Answer: failed

Question: For “NRDSLFNDPNAPVLGNPEGDVTVVEFFDYNCPYCRRAMAEVQGLVDADPNVRLVYREWPILGEGSDFAARAALAARQQGKYEAFHWALMGMSGKANETGVLRIAREVGLDTEQLQRDMEAPEVTAHIAQSMALAQKLGFNGTPSFVVEDALVPGFVEQSQLQDAVDRARKAA”, which protein production is on record?
Answer: not failed

Question: For “VIKKEGPGWRIIFDSSRDNFSTLIGGETWAIELDKSEWKILVEVVMELCDQYKLVKEQLMGDEDITLELERRPWLAILNGDQYGWNLRLILSASGLFNRGAEVYWPRHVTNNVVNAMRSMWDSDYL”, which protein production is on record?
Answer: not failed

Question: For “AAKGNMQCNIFVPAGTSKGKTTQTRLYGANCIEVEGTREDVALAAIESSVTHGSHYVGHNWHPLFIEGVKSIAYEIWEQCGYKAPDNFVVPAGNGSLLAGAYIGFSELLKGGEISKLPRLFGIQSESIQPFVQTFNNKEINITSEDTIAEGIKIKRSSRMNEIVQFVKETNGNFISVNEQQIQSALKEMGAQGYFIEPTSATAFAGIAQLIKTQEIKPDELTVGVVTGNGLKATNSIEHLI”, which protein production is on record?
Answer: failed

Question: For “LLARALYDNCPDCSDELAFSRGDILTILEQHVPESEGWWKCLLHGRQGLAPANRLQIL”, which protein production is on record?
Answer: not failed

Question: For “MYLLTFKGLIYSAGGTWLNKGNLMYFGSLIFLFLVVFLIFSEQRTEKTSGLEKVSVQEAKEMIEKGDVFVLDVRTPDEFNSSHIKGATLIPLSNAFGSNLSSESLLKAHIDEVPKEKILVYCRTGRRSDTAGRMLVNAGYTQVYNMVGGIIAWTDAGYPVVSSEDTESEGSHN”, which protein production is on record?
Answer: failed

Question: With “MEEKAKMRRLSTWKLKLRMFLATVLLFGLIYAILMVVGSILGLGGPLFYALLGFGVIFLQYLISPKIVELTMNVHYVSEAEAPRLHAMVDELARRAGIPKPMVGIAEIALPNAFAFGRTKADGRVCVTRGILNLLDEEELRAVLGHEISHIKHSDMIVMTLVSAVPLICYYIFWSTVFSRDDEANLVGIAALIAYFIGQLIVLFISRTREYYADQGSVEIGGQPHKLASALYKLVLRLSPVQQGRPETGRGCQGLLPE” as the sequence, how does the protein production read?
Answer: failed

Question: Which protein production does the source give for “MAKASSPTDTGKQKVRSAEVGTDILKALAELSPSTSLSRLAEHVQMPASKVHRYLQALIASGFAEQDAATNHYGLGREALRVGLAALGSIDVLKVAAMPLSQLRDELNESCFIAVWGNQGATVVSIEPAVRAVTVVTQIGSVLPLLSSSTGLVFAAYLPERETQELRDRELAALQQTASDYHTLLAGIREKGLHHVHGLLMPGVDALSAPVFNAMGQIAAVMTVVGPTSIFHADEHGPAAQSLLTAARTVSWRMGYAGNPHCASTSSVSSSTSQSSS” here?
Answer: failed

Question: Which protein production does the source give for “MTQDASPILTSLLDTDAYKLHMQQAVFHHYRHITVAAEFRCRSDELLGVYADEIRHQVTLMGQLALTSDEFIYLSSLPFFQDDYLHWLRDFRFKPEQVSVAVHDGKLDIRIAGLWCEVIMWEVPLLAVISEIVHRRRSTQVTTDQAVQQLRTKLEQFNALSADIDITHFKLMDFGTRRRFSREIQHTVVSTLKDEFPYLVGTSNYDLARTLALAPVGTQAHEWFQAHQQISPTLANSQRVALQVWLDEYPNQLGIALTDCITMDAFLRDFDLAFANRYQGLRHDSGDPIEWGEKAIAHYEKLGIDPMKKVLVFSDNLDLEKALFLYRHFYQRIKLVFGIGTRLTCDIPDVKPLNIVIKLVECNDKPVAKLSDSPGKTICQDPAFVDQLRKAFALPLVKKAS” here?
Answer: not failed
